This data set deals with Sindbis virus TE/5'2J-GFP. Briefly: percent infected (GFP+ in RFP+ ISG-expressing cells); higher = more infection (less antiviral activity). How it is done:
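Confirmatory testing of 87 ISGs. Triplicate wells of BHK/HA-Zeo (control) or BHK/NZAP-Zeo (ZAP) cells were transduced with lentiviruses co-expressing a human ISG plus TagRFP, then infected 48 h later with SINV TE/5'2J-GFP (moi 5). The % GFP+ cells among RFP+ cells was measured by flow cytometry at 8 h post infection. Fluc lentivirus served as control. Three independent experiments.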

Where [1] appears, read: experiment: confirmatory screen 1, BHK/HA-Zeo (control).
Where [2] appears, read: experiment: confirmatory screen 1, BHK/NZAP-Zeo (ZAP).
[3] abbreviates: experiment: confirmatory screen 2, BHK/HA-Zeo (control).
Setting [4] is: experiment: confirmatory screen 2, BHK/NZAP-Zeo (ZAP).
Setting [5] is: experiment: confirmatory screen 3, BHK/HA-Zeo (control).
[6] abbreviates: experiment: confirmatory screen 3, BHK/NZAP-Zeo (ZAP).

± gives the standard deviation of the averaged measurements.
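Further: Interferon-defective BHK-21 derivatives, ZAP line overexpressing the rat ZAP N-terminal zinc finger domain fused to Zeocin resistance, GFP scored within live singlet TagRFP+ cells.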

In the case of “MSEIRKDTLKAILLELECHFTWNLLKEDIDLFEVEDTIGQQLEFLTTKSRLALYNLLAYVKHLKGQNKDALECLEQAEEIIQQEHSDKEEVRSLVTWGNYAWVYYHMDQLEEAQKYTGKIGNVCKKLSSPSNYKLECPETDCEKGWALLKFGGKYYQKAKAAFEKALEVEPDNPEFNIGYAITVYRLDDSDREGSVKSFSLGPLRKAVTLNPDNSYIKVFLALKLQDVHAEAEGEKYIEEILDQISSQPYVLRYAAKFYRRKNSWNKALELLKKALEVTPTSSFLHHQMGLCYRAQMIQIKKATHNRPKGKDKLKVDELISSAIFHFKAAMERDSMFAFAYTDLANMYAEGGQYSNAEDIFRKALRLENITDDHKHQIHYHYGRFQEFHRKSENTAIHHYLEALKVKDRSPLRTKLTSALKKLSTKRLCHNALDVQSLSALGFVYKLEGEKRQAAEYYEKAQKIDPENAEFLTALCELRLSI [IFIT5]”, the percent infected runs as follows: under setting [1], 81.6 ± 2.9%; under setting [2], 50.4 ± 1.2%; under setting [3], 95.17 ± 0.24%; under setting [4], 95.34 ± 0.45%; under setting [5], 88.13 ± 0.37%; under setting [6], 90.56 ± 0.79%.
Consider “MSIMDHSPTTGVVTVIVILIAIAALGALILGCWCYLRLQRISQSEDEESIVGDGETKEPFLLVQYSAKGPCVERKAKLMTPNGPEVHG [SNN]”, for which the percent infected came to 95.8 ± 1.9% under setting [1]; 86.47 ± 0.82% under setting [2]; 96.15 ± 0.19% under setting [3]; 95.59 ± 0.2% under setting [4]; 93.27 ± 0.64% under setting [5]; 92.87 ± 0.32% under setting [6].
Turning to “MSLRGSLSRLLQTRVHSILKKSVHSVAVIGAPFSQGQKRKGVEHGPAAIREAGLMKRLSSLGCHLKDFGDLSFTPVPKDDLYNNLIVNPRSVGLANQELAEVVSRAVSDGYSCVTLGGDHSLAIGTISGHARHCPDLCVVWVDAHADINTPLTTSSGNLHGQPVSFLLRELQDKVPQLPGFSWIKPCISSASIVYIGLRDVDPPEHFILKNYDIQYFSMRDIDRLGIQKVMERTFDLLIGKRQRPIHLSFDIDAFDPTLAPATGTPVVGGLTYREGMYIAEEIHNTGLLSALDLVEVNPQLATSEEEAKTTANLAVDVIASSFGQTREGGHIVYDQLPTPSSPDESENQARVRI [ARG2]”, the percent infected is, setting by setting: under setting [1], 93.279 ± 0.073%; under setting [2], 64 ± 4.9%; under setting [3], 95.82 ± 0.36%; under setting [4], 95.52 ± 0.29%; under setting [5], 92.68 ± 0.49%; under setting [6], 93.532 ± 0.087%.
As for “MSNGYSTDENFRYLISCFRARVKMYIQVEPVLDYLTFLPAEVKEQIQRTVATSGNMQAVELLLSTLEKGVWHLGWTREFVEALRRTGSPLAARYMNPELTDLPSPSFENAHDEYLQLLNLLQPTLVDKLLVRDVLDKCMEEELLTIEDRNRIAAAENNGNESGVRELLKRIVQKENWFSAFLNVLRQTGNNELVQELTGSDCSESNAEIENLSQVDGPQVEEQLLSTTVQPNLEKEVWGMENNSSESSFADSSVVSESDTSLAEGSVSCLDESLGHNSNMGSDSGTMGSDSDEENVAARASPEPELQLRPYQMEVAQPALEGKNIIICLPTGSGKTRVAVYIAKDHLDKKKKASEPGKVIVLVNKVLLVEQLFRKEFQPFLKKWYRVIGLSGDTQLKISFPEVVKSCDIIISTAQILENSLLNLENGEDAGVQLSDFSLIIIDECHHTNKEAVYNNIMRHYLMQKLKNNRLKKENKPVIPLPQILGLTASPGVGGATKQAKAEEHILKLCANLDAFTIKTVKENLDQLKNQIQEPCKKFAIADATREDPFKEKLLEIMTRIQTYCQMSPMSDFGTQPYEQWAIQMEKKAAKEGNRKERVCAEHLRKYNEALQINDTIRMIDAYTHLETFYNEEKDKKFAVIEDDSDEGGDDEYCDGDEDEDDLKKPLKLDETDRFLMTLFFENNKMLKRLAENPEYENEKLTKLRNTIMEQYTRTEESARGIIFTKTRQSAYALSQWITENEKFAEVGVKAHHLIGAGHSSEFKPMTQNEQKEVISKFRTGKINLLIATTVAEEGLDIKECNIVIRYGLVTNEIAMVQARGRARADESTYVLVAHSGSGVIEHETVNDFREKMMYKAIHCVQNMKPEEYAHKILELQMQSIMEKKMKTKRNIAKHYKNNPSLITFLCKNCSVLACSGEDIHVIEKMHHVNMTPEFKELYIVRENKALQKKCADYQINGEIICKCGQAWGTMMVHKGLDLPCLKIRNFVVVFKNNSTKKQYKKWVELPITFPNLDYSECCLFSDED [IFIH1]”, the percent infected was found to be 70.9 ± 2.3% under setting [1]; 14.9 ± 0.81% under setting [2]; 95.18 ± 0.27% under setting [3]; 92.703 ± 0.051% under setting [4]; 85 ± 1.1% under setting [5]; 81 ± 2.6% under setting [6].
Take “MSSAIERKSLDPSEEPVDEVLQIPPSLLTCGGCQQNIGDRYFLKAIDQYWHEDCLSCDLCGCRLGEVGRRLYYKLGRKLCRRDYLRLFGQDGLCASCDKRIRAYEMTMRVKDKVYHLECFKCAACQKHFCVGDRYLLINSDIVCEQDIYEWTKINGMI [LMO2]”: the percent infected is, setting by setting: under setting [1], 95.7 ± 1.2%; under setting [2], 86.1 ± 1.6%; under setting [3], 95.94 ± 0.44%; under setting [4], 94.18 ± 0.17%; under setting [5], 92.69 ± 0.33%; under setting [6], 92.61 ± 0.82%.
Consider “MSSENCFVAENSSLHPESGQENDATSPHFSTRHEGSFQVPVLCAVMNVVFITILIIALIALSVGQYNCPGQYTFSMPSDSHVSSCSEDWVGYQRKCYFISTVKRSWTSAQNACSEHGATLAVIDSEKDMNFLKRYAGREEHWVGLKKEPGHPWKWSNGKEFNNWFNVTGSDKCVFLKNTEVSSMECEKNLYWICNKPYK [CD69]”, for which the percent infected under setting [1] is 95.94 ± 0.47%; the percent infected under setting [2] was determined as 68.2 ± 4.8%; the percent infected under setting [3] worked out at 94.01 ± 0.54%; the percent infected under setting [4] amounted to 94.27 ± 0.39%; the percent infected under setting [5] stood at 91.7 ± 1.1%; the percent infected under setting [6] turned out to be 93.02 ± 0.27%.
On to “MSSILPFTPPIVKRLLGWKKGEQNGQEEKWCEKAVKSLVKKLKKTGQLDELEKAITTQNVNTKCITIPRSLDGRLQVSHRKGLPHVIYCRLWRWPDLHSHHELRAMELCEFAFNMKKDEVCVNPYHYQRVETPVLPPVLVPRHTEIPAEFPPLDDYSHSIPENTNFPAGIEPQSNIPETPPPGYLSEDGETSDHQMNHSMDAGSPNLSPNPMSPAHNNLDLQPVTYCEPAFWCSISYYELNQRVGETFHASQPSMTVDGFTDPSNSERFCLGLLSNVNRNAAVELTRRHIGRGVRLYYIGGEVFAECLSDSAIFVQSPNCNQRYGWHPATVCKIPPGCNLKIFNNQEFAALLAQSVNQGFEAVYQLTRMCTIRMSFVKGWGAEYRRQTVTSTPCWIELHLNGPLQWLDKVLTQMGSPSIRCSSVS [SMAD3]”, for which the percent infected under setting [1] amounted to 77.4 ± 2.3%; the percent infected under setting [2] came to 40.7 ± 1.2%; the percent infected under setting [3] worked out at 93.92 ± 0.8%; the percent infected under setting [4] worked out at 94.56 ± 0.45%; the percent infected under setting [5] stood at 80.2 ± 1.3%; the percent infected under setting [6] was determined as 88.2 ± 1.7%.
On to “MSSWSRQRPKSPGGIQPHVSRTLFLLLLLAASAWGVTLSPKDCQVFRSDHGSSISCQPPAEIPGYLPADTVHLAVEFFNLTHLPANLLQGASKLQELHLSSNGLESLSPEFLRPVPQLRVLDLTRNALTGLPPGLFQASATLDTLVLKENQLEVLEVSWLHGLKALGHLDLSGNRLRKLPPGLLANFTLLRTLDLGENQLETLPPDLLRGPLQLERLHLEGNKLQVLGKDLLLPQPDLRYLFLNGNKLARVAAGAFQGLRQLDMLDLSNNSLASVPEGLWASLGQPNWDMRDGFDISGNPWICDQNLSDLYRWLQAQKDKMFSQNDTRCAGPEAVKGQTLLAVAKSQ [LRG1]”, for which the percent infected reads like this: under setting [1], 95.1 ± 1%; under setting [2], 68.2 ± 4.8%; under setting [3], 95.09 ± 0.35%; under setting [4], 94.92 ± 0.53%; under setting [5], 93.09 ± 0.65%; under setting [6], 94.47 ± 0.18%.

These data come from the supplement of paper PMC3353916.
